Where a chain is given by its changes, count along the chain named. Names may count otherwise. Read-outs that look alike come from different tables or passages of the source.

Here are results for four molecules from publication PMC3137068.

Data set [1] concerns the target oxidized nDsbD (N-terminal periplasmic globular domain of DsbD, wild type) (E. coli) (UniProt P36655). Kind of data set: SPR. For orientation: In SPR one partner is held on a chip, and binding of the other changes the refractive index at the surface.
The next data set concerns the target Cys461 (UniProt position 480, LYADWCVACKE). Kind of data set: NMR. The note with it: reduced cDsbD (Cys461 and Cys464 as free thiols), isolated from nDsbD; cited from earlier work.
In the next data set the target is Asp455 (UniProt position 474, KPVMLDLYADW). The note with it: isolated domain, cited from earlier work.
For data set [2], the target named is oxidized D455N/E468Q-cDsbD (E. coli). Kind of data set: NMR titration.
Data set [3] deals with oxidized V462A-cDsbD (E. coli). The data set can be described thus: NMR titration.
The target in data set [4] is oxidized cDsbD (C-terminal periplasmic globular domain of DsbD, wild type) (E. coli). The data set can be described thus: NMR titration.
oxidized cDsbD (C-terminal periplasmic globular domain of DsbD, wild type) (E. coli), sequence (P36655 20-565): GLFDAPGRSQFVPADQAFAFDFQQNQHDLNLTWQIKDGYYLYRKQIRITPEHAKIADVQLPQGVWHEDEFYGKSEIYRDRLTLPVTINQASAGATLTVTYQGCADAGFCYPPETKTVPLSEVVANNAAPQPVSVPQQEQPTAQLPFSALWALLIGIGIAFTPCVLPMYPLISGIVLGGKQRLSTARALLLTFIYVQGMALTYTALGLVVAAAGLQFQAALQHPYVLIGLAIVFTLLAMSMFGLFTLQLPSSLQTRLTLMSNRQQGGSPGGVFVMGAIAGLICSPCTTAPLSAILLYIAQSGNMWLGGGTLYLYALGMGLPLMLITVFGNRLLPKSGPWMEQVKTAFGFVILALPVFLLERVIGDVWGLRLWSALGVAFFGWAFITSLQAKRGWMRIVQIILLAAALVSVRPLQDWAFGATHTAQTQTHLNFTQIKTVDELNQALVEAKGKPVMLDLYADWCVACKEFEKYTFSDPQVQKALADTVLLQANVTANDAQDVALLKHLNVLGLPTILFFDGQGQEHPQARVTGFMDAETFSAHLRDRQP

Broadly, the Kd is the equilibrium constant for the complex coming apart. Lower therefore signals tighter binding. In turn, C461A-cDsbD (domain or fragment) yielded a Kd in data set [1] of 86 µM.
Usually pKa stands for the pH at which an ionisable group is half protonated. Consider “Thiol:disulfide interchange protein DsbD, C-terminal periplasmic thioredoxin-like domain (cDsbD) (Escherichia coli)”, for which the pKa was 10.5 with Cys461; 6.6 with Asp455 (oxidized cDsbD (Cys461-Cys464 disulfide)); 5.9 with Asp455 (reduced cDsbD (Cys461 and Cys464 as free thiols)).

B1: oxidized nDsbD (N-terminal periplasmic globular domain of DsbD, wild type) (domain or fragment)
chain: LFDAPGRSQFVPADQAFAFDFQQNQHDLNLTWQIKDGYYLYRKQIRITPEHAKIADVQLPQGVWHEDEFYGKSEIYRDRLTLPVTINQASAGATLTVTYQGCADAGFCYPPETKTVPLSEVVANNAAPQPV
modifications: Cys103-Cys109 disulfide bond (oxidized state)
With B1, the equilibrium dissociation constant (Kd) in data set [2] was 2000 µM. This molecule displayed a fold weaker than with wild-type cDsbDox in data set [3] of 5 to 10 fold.

B2: C109A-nDsbD (domain or fragment)
chain: B1 chain with C108A
With B2, the Kd in data set [4] lay within 2400 to 3500 µM.
